This data set deals with BT474 cells. Put plainly: Transwell migration and invasion assay, BT474 cells. It is filed as cell-based, human. The settings on record: for invasion ability: Matrigel-coated transwell. On the procedure: FIG. 3A) BT474 cells were incubated with 10 μg/mL control and pRNA-HER2apt-siMED1 nanoparticles for 48 h, and MED1 mRNA level was determined by real-time PCR. FIG. 3B) BT474 cells were incubated directly with (as indicated by -) or transfected with indicated pRNAs using lipofectamine 2000. At 48 h post treatment, MED1 protein levels were determined by western blotting. FIG. 3C) BT474 cells were treated with 10 μg/mL pRNA nanoparticles for 48 h and assayed for cell viability by MTT assay. FIG. 3D) Cells were treated as above and seeded for migration, and FIG. 3E) invasion transwell assays. Scale bar: 50 μm. FIG. 3F) After pRNA treatment for 48 h, the mRNA levels of ERα target genes TFF-1, FIG. 3G) c-Myc, and FIG. 3H) cyclin D1 in BT474 cells were determined by real-time PCR.
FIG. 4A) BT474 cells were treated with pRNA nanoparticles in combination with vehicle or 1 μM 4-hydroxy-tamoxifen (4-OHT) as indicated for 48 h, and assayed for cell viability by MTT assay. FIG. 4B) Cells were treated as above and the migration and FIG. 4C) invasion capabilities were examined. FIG. 4D) Cells were treated as above and assayed for in vitro mammosphere formation. FIG. 4E) The number of mammospheres was counted, and FIG. 4F) the mammosphere size was calculated. Scale bar: 10 μm.
FIG. 11. […] BT474 cells were treated with pRNA nanoparticles alone or together with 1 μM 4-hydroxy-tamoxifen (4-OHT) for 48 h. Cell migration and invasion were then examined using transwell assay. Photos were recorded using an Olympus SZX12 microscope. Scale bar: 100 μm.
Migration and metastasis assay. The 8-μm-pore-size polycarbonate membrane, which separates the two chambers of a 6.5-mm Transwell (Costar), was coated with or without 1:8 DMEM-diluted Matrigel (Corning). Transwell assay was performed as previously described.^57 Briefly, BT474 cells were treated with pRNAs alone or together with 4-hydroxy-tamoxifen (4-OHT) for 48 h and starved with serum-free DMEM containing 0.2% BSA overnight. On the next day, cells were collected and 2×10^5 cells were seeded to the upper chamber of Transwell. The lower chamber was filled with 600 μL DMEM medium containing 10% FBS. After incubation at 37° C. for 24 h, cells on the membranes were fixed and stained with 0.1% crystal violet in 20% ethanol solution. Cells at top side of membranes were removed completely, and cells at the bottom side were examined with an Olympus SZX12 microscope and counted. • Mammosphere culture and breast cancer stem cell analyses. BT474 cells were treated with pRNAs for 48 h. Then, cells were suspended in DMEM/F12 medium supplemented with 1×B27 (Thermo Fisher), 20 ng/mL bFGF and 20 ng/mL EGF (R&D), and added into 24-well ultralow attachment plates. After treatment with or without 1 μM 4-OHT for 7 days, mammosphere formation was recorded using an Axiovert S100 TV inverted microscope (Zeiss). Xenograft tumor tissues were cut into small pieces and digested with trypsin and collagenase at 37° C. for 1 h, and tumor cells were collected and rinsed with pre-cold PBS. All cells were stained with FITC-conjugated anti-CD44 antibody and PE-conjugated anti-CD24 antibody (BD Pharmingen) in the dark on ice for 30 min. After resuspension with 0.5 mL PBS buffer, CD44^+/CD24^−/low cell population was analyzed by flow cytometry. • Orthotopic xenograft breast tumor mouse model, in vivo imaging and anti-tumor therapy. […]

The mark [1] stands for this setting: BT474, in combination with 1 μM 4-hydroxy-tamoxifen, 48 h.

The source of these data is US11110182B2, “Multifunctional RNA nanoparticles and methods for treating cancer and therapeutic resistant cancer” (University of Cincinnati, priority 2016, dated 2021).

B1: pRNA-HER2apt-siMED1: 3-WJ pRNA nanoparticle bearing a HER2-targeting RNA aptamer and two different MED1 siRNAs; strands p1 SEQ ID NO: 3, p2 SEQ ID NO: 4 (nucleic acid)
chain 1: GGACAGUGAAAGUGAGUCAAAGGAUCAAUCAUGGCCAAAGAUGUUACUUUGAGAGCCUU
chain 2: GGCUCUCAAAGUAACAUCUAAGGCCAUGUGUAUGUGGGGGGAGGACGAUGCGGUCUGCUGUGCUUGAUAUGCCCCAGACGACUCGCCCCCCACAUACUUUGUUGAUCCAAUGACUCACUUUCACUGUCCUU
modifications: 2'-F modification; third strand may lack entry; pRNA-HER2apt-siMED1, p1; pRNA-HER2apt-siMED1, p2
With B1, the invasion ability result (BT474, 48 h treatment) is reported as “specifically suppressed”. Where the note is “BT474, 48 h treatment, transwell without Matrigel”, the migration ability result was “specifically suppressed”. Under setting [1], the “effect on tamoxifen inhibition of invasion” value was “significantly enhanced the inhibitory effects of tamoxifen” and the “effect on tamoxifen inhibition of migration” value is recorded as “significantly enhanced the inhibitory effects of tamoxifen”.

B2: pRNA-HER2apt^mut-siMED1: control pRNA nanoparticle with mutant HER2 aptamer; strands p1 SEQ ID NO: 5, p2 SEQ ID NO: 6 (nucleic acid)
chain 1: GGACAGUGAAAGUGAGUCAAAGGAUCAAUCAUGGCCAAAGAUGUUACUUUGAGAGCCUU
chain 2: GGCUCUCAAAGUAACAUCUAAGGCCAUGUGUAUGUGGGAUGAGGAGUAUGAAGAUACCUGUACUUGAUAUGCCCCAGACGACAUUCCCCCCACAUACUUUGUUGAUCCAAUGACUCACUUUCACUGUCCUU
modifications: pRNA-HER2apt(mut)-siMED1, p1; pRNA-HER2apt(mut)-siMED1, p2
Consider B2, for which the invasion ability entry (BT474, 48 h treatment) is “not”.
